Data from patent publication US5994105.

Target: commercially available renin (SIGMA)
Conditions: scale: % remaining renin activities

rat acylglucosamine 2-epimerase obtained in example 4 (from UniProt P51607) (enzyme)
Remaining renin activities (%): 48
